Measured values published in the supplement of paper PMC9170038.

Experiments:
[1] = system: MS2 coat protein; assay: apparent KD of MS2 coat protein; designed switch direction (-1 OFF switch, 1 ON switch): 1; higher = weaker reporter binding; settings: Eterna round: R98
Procedure: (§1)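 RNA-MaP: designed FMN/MS2 RNA switches (84 nt design region) are transcribed on-chip within common flanks and titrated with SNAP-549-labelled MS2 coat protein (about 1-3000 nM) in 100 mM Tris pH 7.5, 80 mM KCl, 4 mM MgCl2, without or with 200 uM FMN. Median apparent KD per design; activation ratio = KD,OFF / KD,ON.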

[2] = system: MS2 coat protein; assay: apparent KD of MS2 coat protein; higher = weaker reporter binding; settings: Eterna round: R101
Procedure: as §1

Sequence | apparent KD of MS2 coat protein ([1]; input ligand: FMN 200 uM) | apparent KD of MS2 coat protein ([1]; input ligand: none) | apparent KD of MS2 coat protein ([2]; input ligand: FMN 200 uM) | apparent KD of MS2 coat protein ([2]; input ligand: none)
AAAAUAAAAUAAAUUAACAUGAGGAUCACCCAUGUCGCUAGACAGGAUAUAUAAAAUAAAAUAAAGUAGAAGGGUCAAAUAAAA [LRO001_SS NG 3] | 88.2 nM | 114 nM | – | –
AAAAUAUAAUAUAUUAACAUGAGGAUCACCCAUGUCGCUAGACAGGAUAUAUAAAAUAAAAUAAAGUAGAAGGGUCAUAUAAUA [LRO003_SS NG 3] | 93.9 nM | 56.4 nM | – | –
AAACUUAUCACAGGAUAUUCCUGAGGAUGCCAGGGAGAAGGGUGACUCUUGGGACAUGAGGAUCACCCAUGUUCUGUGGGAAAA [Xeusdior] | 190 nM | 182 nM | – | –
AAAUAAACUCAAGGAUAUGACUCCGAAACGGAGUCAGAAGGUGAGGAUCACCCACCUAAGAUCAGACCUCAGGAAACUGAGGUC [#SharedSequence ExNG1 - 36] (puzzle (switch architecture): Exclusion NG 1) | – | – | 13.2 nM | 6.46 nM
AAAUAAAUUCAAGGAUAUCAGUGGCAAAGCCACUGAGAAGGUGAGGAUCACCCACCUAUGAUCACAGGUGACGAAAGUCACCUG [#SharedSequence ExNG1 - 38] (puzzle (switch architecture): Exclusion NG 1) | – | – | 11.4 nM | 11.3 nM
AAAUCUCGAGCCGACGGGAGAGUACAUGAGGAUCACCCAUGUGAGGAUAUCCCUGAGAAGACGGCGGAGAAGGCACUGGGUAGG [Erzaribeve] (puzzle (switch architecture): Exclusion NG 3) | – | – | 9.95 nM | 8.6 nM
AAAUGAUAUCAGAAGGGCUCCAGCAAAGCUGGAGCAGGAUAUGAGGAUCACCCAUGUCACCUGACGGUCGAAACGACCGUCAGG [#SharedSequence - IExNG1: 7-3] (puzzle (switch architecture): Inverted Exclusion NG 1) | – | – | 205 nM | 26.6 nM
AAAUGCCUGUCGAUGCUCGACAUGAGGAUCACCCAUGUAUAGCAGGAUAUGCAGAACUGACUCGUGCAGAAGGGCUAUACCUAA (puzzle (switch architecture): Exclusion NG 3) | – | – | 52.8 nM | 18.7 nM
AAUAAUCUUUAAGGAUAUCAGUGGCAAAGCCACUGAGAAGGUGAGGAUCACCCACCUACGUGACCCUGGAAACAGGGUCACGAA [#SharedSequence - ExNG1-10] (puzzle (switch architecture): Exclusion NG 1) | – | – | 15.4 nM | 14.3 nM
ACGUUAAUUCGAGGAUAUCGGUGAUUUAUAUUACGAGAAGGCGAUAAUUGUGAACAACUUAUAGACAUGAGGAUCACCCAUGUA [JR_SSNG1_Sub065] | 21.3 nM | 28.6 nM | – | –
AGCGGUAGGACAGGAUAUGGUGACUUCAAGCGGCCAGAAGGGUCCCGACAUGAGGAUCACCCAUGUCUUCCAGGCAGGAAGCGC [Bequques] | 443 nM | 239 nM | – | –
AUAUAUAUAUAGAAGGACAUGAGGAUCACCCAUGUCGCCGGGCCCGGGAAACCGGGCCCGGCCAUGUAGGAUAUAUAUAUAUAU [#This is a good prank 12] (puzzle (switch architecture): Inverted Exclusion NG 2) | – | – | 5.57 nM | 3.55 nM
CACGUCCUCACAGGAUAUGCUGGACUUUGUCCAGCAGAAGGGUGAAACAUGAGGAUCACCCAUGUAAGGACGUGUAUAUUUAAU [Denovo 21] | 1470 nM | 187 nM | – | –
CAGUCGACCAUAACAAGGUCGACUGACUUCUGAGGAUCACCCAGAAGGCGUCACCUAAUAGGUGACGAGGAUAUGGAGUGAAAA [#SharedSequence IExNG# - 6] (puzzle (switch architecture): Inverted Exclusion NG 3) | – | – | 75 nM | 95 nM
CCGAAUGUCACAGGAUAUGGUCCGGGCACGCGACCAGAAGGGUGAUCUCACAUGAGGAUCACCCAUGUGUAGGCGUUAGACUAC [Dierata] | 191 nM | 96.6 nM | – | –
CGGAUCGCAUGAGGAUAUGGUCAGCUUUGCUGACCAGAAGGCAUGUCAAUAGACAUGAGGAUCACCCAUGUAGUUAAGAUCCGA [Mat - Same State NG 1 - JL Mod - D17] | 45.5 nM | 644 nM | – | –
GAGAAGAAGUUAGGAUAUUGGAUAGGGACGGAAUAAGAAGGAGCAAGGGACAUGAGGAUCACCCAUGUAGAAGAAGAGAUCCUC [X-NG1_50] (puzzle (switch architecture): Exclusion NG 1) | – | – | 10.9 nM | 26.7 nM
GCAGCUAAUGCAGGAUAUCAGCACGUGUAGUGCUGAGAAGGGCACAUGAGGAUCAAAACUGUGAUCAAUUAAUAUUAAUGCUGC [salish99#hingeEx3_55-58_001] (puzzle (switch architecture): Exclusion NG 1) | – | – | 8.28 nM | 9.12 nM

Sequence | apparent KD of MS2 coat protein ([1]; input ligand: FMN 200 uM) | apparent KD of MS2 coat protein ([1]; input ligand: none) | apparent KD of MS2 coat protein ([2]; input ligand: FMN 200 uM) | apparent KD of MS2 coat protein ([2]; input ligand: none)
GCCAUCGCAUGAGGAUAUGCUCCGGUUUCCGGAGCAGAAGGCAUGUCAUAAGACAUGAGGAUCACCCAUGUAGUUAAGAUGGCA [#HiddenHairpinInALoop - jl-sng1-2.00 jl mod - Original] (puzzle (switch architecture): Same State NG 1) | – | – | 10.6 nM | 283 nM
GGAGAUACAUGAGGAUCACCCAUGUAGGAUAUAUAGUAUAUAUAUAUUGAAAGAUAUAUAUAUAUAUAGAAGGGCGUGCACACC [#LOL-17] (puzzle (switch architecture): Small Loop Exclusion NG 3) | – | – | 6.32 nM | 8.77 nM
GGGUGGGUCACAGGAUAUCCCGUGAGCCACAUGAGGAUCACCCAUGUAUCACGACGAAAGAAGAAGGAGAAGGGUGACCCUGAU [Tibiiste] | 29.8 nM | 40.7 nM | – | –
GGUCCAACAUGAGGAUAUGGCACCUUAUUGGUGCCAGAAGGCGUGUCGAUAGACAUGAGGAUCACCCAUGUAAUAAAUUGGACC [SameState #23 NG1] | 138 nM | 467 nM | – | –
GGUCGACUUCAAGGAUAUGGACUGCAAAGCAGUCCAGAAGGUGAGGAUCACCCACCUACGGUCAGGAAACUGACCGAUCGACCA [#SharedSequence - ExNG1-4] (puzzle (switch architecture): Exclusion NG 1) | – | – | 12.3 nM | 10.5 nM
GUAACAUGAGGAUCACCCAUGUCGUGCUAGAUGAGUUCUGGUGAGGAUAUACAUGGUAAAUAACUGUAGAAGGCACUGGGUACA [SameState #67 NG3] | 44.7 nM | 133 nM | – | –
GUAGCAUUGAGAGGAUAUCCAUACCGGAAACGGACAUGAGGAUCACCCAUGUGGCGAAAGCCUUGGGAGAAGGCUCUAUGCUAC [S-state NG2 01] (puzzle (switch architecture): Same State NG 2) | – | – | – | 4.34 nM
GUCGAAUUCUUAGGAUAUCGAGUGGAAUACACUCGAGAAGGAAGAUAUACCUGAGGAUCACCCAGGUUAAACUGAACGACAAUA [Same State NG1 - A3C, U17G Submission 7C] | 17.6 nM | 17.6 nM | – | –
UAAAUAAAUCCUAGAGGAUCACCCUAGGAUAUCACCGUCGAGGUGCCAUAAUGGCACCUCGACGGUGAGAAGGAGGGAAAUAAA [#SharedSequence - SLExNG3: 3] (puzzle (switch architecture): Small Loop Exclusion NG 3) | – | – | 11.6 nM | 9.97 nM
UAAAUAAAUCCUAGAGGAUCACCCUAGGAUAUCACCGUCGAGGUGCCAUAAUGGCACCUCGACGGUGAGAAGGAGGUUGAUAAA [#SharedSequence - SLExNG3: 6] (puzzle (switch architecture): Small Loop Exclusion NG 3) | – | – | 13 nM | 8.33 nM
UAGUGUUCUCGAGGAUAUGGGUUCCGUUUUAGCCCAGAAGGCGAACAUGAGGAUCACCCAUGUAUGAAUACACAGCAGAAUUGU [Teedri] | 153 nM | 1750 nM | – | –
UAUAUAUAUUGAGGAUAUGCACAGGAUCACCGUGUAGAAGGCAUCAGGGAGAAGGUGCAGAGGAUCACCCUGUAAGGAUAUCAU [pwkr2 ssNG1 DX.1] | 146 nM | 205 nM | – | –
UAUUUAUGGUGAGGAUAUGCAAAGGAUCACCUUGUAGAAGGCAUCAGGUAGAAGGUGCAGAGGAUCACCCUGUAAGGAUAUAUC [pwkr2 ssNG1 DX.22] | 66.1 nM | 232 nM | – | –
UCACUCACGUUAGGAUAUGGAUCGGAAAACGAUCCAGAAGGAACCUGCAAACCUGAGGAACACCCAGGUUCCAAUAACGAGUGA [SameSame 8 - Jieux - Same State NG 1] | 745 nM | 839 nM | – | –
UCCGAUGUACAUGAGGAUCACCCAUGUCAUAUGCCCGUGACACAGGAUAUCCAGGGUAGGCCAAAGGAGAAGGGUGAUCCGCGG [Lelete] | 122 nM | 51.8 nM | – | –
UUUAUUUAUUGAGGAUAUGCACAGGAUCACCGUGUAGAAGGCAUCAGGGAGAAGGUGCAGAGGAUCACCCUGUAAGGAUAUCAC [pwkr2 ssNG1 DX.2] | 144 nM | 381 nM | – | –
UUUAUUUUUAGAGGAUAUAUAGAGAGAGAGAGAAUAGAAGGCUAAACAUACAUGAACAUGAGGAUCACCCAUGUCACCCAUGUU [Attempt 2] | 34.3 nM | 28.3 nM | – | –
